Measurements as given in PMC5388391.

Legend:
[1] = biological target: T1, KLF1 zinc finger domain (WT) (mouse (murine), UniProt P46099 243-358); assay: EMSA
[2] = biological target: T2, Nan-KLF1 zinc finger domain (mouse (murine), Nan mutant, UniProt P46099 243-358, E321D); assay: EMSA
[3] = biological target: T1, KLF1 zinc finger domain (WT); assay: fluorescence polarization
[4] = biological target: T2, Nan-KLF1 zinc finger domain; assay: fluorescence polarization

T1 sequence (P46099 243-358): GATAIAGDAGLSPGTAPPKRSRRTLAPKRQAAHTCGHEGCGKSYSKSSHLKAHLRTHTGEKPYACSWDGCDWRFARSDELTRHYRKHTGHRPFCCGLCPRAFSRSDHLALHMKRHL
T2 sequence (P46099 243-358 E321D): as the sequence (P46099 243-358) above, with E79D counted along it

Binder	binding result [1]	binding result [2]	further results
beta-globin (Hbb promoter, Category II, TG) (dsDNA) DNA 1: TAGAGCCACACCCTGGTAAG DNA 2: CTTACCAGGGTGTGGCTCTA	binds	–	–
Alas2 (Category I, CG), EMSA (dsDNA) DNA 1: TCTCTCCCACGCCCTGGGCTC DNA 2: GAGCCCAGGGCGTGGGAGAGA	binds	binds	–
Alas2 variant 2 (CT), EMSA (dsDNA) DNA 1: TCTCTCCCAAGCCCTGGGCTC DNA 2: GAGCCCAGGGCTTGGGAGAGA	–	binds	–
Alas2_fp (CG) (dsDNA, 5' fluorescein-dT (/5FluorT/) preceding S51, written as T) DNA 1: TTCTCTCCCACGCCCTGGGCTC DNA 2: GAGCCCAGGGCGTGGGAGAGA	–	–	Kd [3]: 150 nM; Kd [4]: 130 nM
Alas2 variant 1 (CA), EMSA (dsDNA) DNA 1: TCTCTCCCATGCCCTGGGCTC DNA 2: GAGCCCAGGGCATGGGAGAGA	–	binds	–
Alas2 variant 3 (AG), EMSA (dsDNA) DNA 1: TCTCTCCCACTCCCTGGGCTC DNA 2: GAGCCCAGGGAGTGGGAGAGA	–	binds	–
